Experimental data as given in US20240293465A1.

B1: bovine FXa (activated bovine clotting factor X) (protein)
chain: ANSFLEEVKQGNLERECLEEACSLEEAREVFEDAEQTDEFWSKYKDGDQCEGHPCLNQGHCKDGIGDYTCTCAEGFEGKNCEFSTREICSLDNGGCDQFCREERSEVRCSCAHGYVLGDDSKSCVSTERFPCGKFTQGRSRRWAIHTSEDALDASELEHYDPADLSPTESSLDLLGLNRTEPSAGEDGSQVVRIVGGRDCAEGECPWQALLVNEENEGFCGGTILNEFYVLTAAHCLHQAKRFTVRVGDRNTEQEEGNEMAHEVEMTVKHSRFVKETYDFDIAVLRLKTPIRFRRNVAPACLPEKDWAEATLMTQKTGIVSGFGRTHEKGRLSSTLKMLEVPYVDRSTCKLSSSFTITPNMFCAGYDTQPEDACQGDSGGPHVTRFKDTYFVTGIVSWGEGCARKGKFGVYTKVSNFLKWIDKIMKARAGAAGSRGHSEAPATWTVPPPLPL

Experiments:
[1] = target: human C3 (UniProt P01024)
[2] = target: human C3, P01024
human C3, P01024, sequence (P01024 whole entry, looked up): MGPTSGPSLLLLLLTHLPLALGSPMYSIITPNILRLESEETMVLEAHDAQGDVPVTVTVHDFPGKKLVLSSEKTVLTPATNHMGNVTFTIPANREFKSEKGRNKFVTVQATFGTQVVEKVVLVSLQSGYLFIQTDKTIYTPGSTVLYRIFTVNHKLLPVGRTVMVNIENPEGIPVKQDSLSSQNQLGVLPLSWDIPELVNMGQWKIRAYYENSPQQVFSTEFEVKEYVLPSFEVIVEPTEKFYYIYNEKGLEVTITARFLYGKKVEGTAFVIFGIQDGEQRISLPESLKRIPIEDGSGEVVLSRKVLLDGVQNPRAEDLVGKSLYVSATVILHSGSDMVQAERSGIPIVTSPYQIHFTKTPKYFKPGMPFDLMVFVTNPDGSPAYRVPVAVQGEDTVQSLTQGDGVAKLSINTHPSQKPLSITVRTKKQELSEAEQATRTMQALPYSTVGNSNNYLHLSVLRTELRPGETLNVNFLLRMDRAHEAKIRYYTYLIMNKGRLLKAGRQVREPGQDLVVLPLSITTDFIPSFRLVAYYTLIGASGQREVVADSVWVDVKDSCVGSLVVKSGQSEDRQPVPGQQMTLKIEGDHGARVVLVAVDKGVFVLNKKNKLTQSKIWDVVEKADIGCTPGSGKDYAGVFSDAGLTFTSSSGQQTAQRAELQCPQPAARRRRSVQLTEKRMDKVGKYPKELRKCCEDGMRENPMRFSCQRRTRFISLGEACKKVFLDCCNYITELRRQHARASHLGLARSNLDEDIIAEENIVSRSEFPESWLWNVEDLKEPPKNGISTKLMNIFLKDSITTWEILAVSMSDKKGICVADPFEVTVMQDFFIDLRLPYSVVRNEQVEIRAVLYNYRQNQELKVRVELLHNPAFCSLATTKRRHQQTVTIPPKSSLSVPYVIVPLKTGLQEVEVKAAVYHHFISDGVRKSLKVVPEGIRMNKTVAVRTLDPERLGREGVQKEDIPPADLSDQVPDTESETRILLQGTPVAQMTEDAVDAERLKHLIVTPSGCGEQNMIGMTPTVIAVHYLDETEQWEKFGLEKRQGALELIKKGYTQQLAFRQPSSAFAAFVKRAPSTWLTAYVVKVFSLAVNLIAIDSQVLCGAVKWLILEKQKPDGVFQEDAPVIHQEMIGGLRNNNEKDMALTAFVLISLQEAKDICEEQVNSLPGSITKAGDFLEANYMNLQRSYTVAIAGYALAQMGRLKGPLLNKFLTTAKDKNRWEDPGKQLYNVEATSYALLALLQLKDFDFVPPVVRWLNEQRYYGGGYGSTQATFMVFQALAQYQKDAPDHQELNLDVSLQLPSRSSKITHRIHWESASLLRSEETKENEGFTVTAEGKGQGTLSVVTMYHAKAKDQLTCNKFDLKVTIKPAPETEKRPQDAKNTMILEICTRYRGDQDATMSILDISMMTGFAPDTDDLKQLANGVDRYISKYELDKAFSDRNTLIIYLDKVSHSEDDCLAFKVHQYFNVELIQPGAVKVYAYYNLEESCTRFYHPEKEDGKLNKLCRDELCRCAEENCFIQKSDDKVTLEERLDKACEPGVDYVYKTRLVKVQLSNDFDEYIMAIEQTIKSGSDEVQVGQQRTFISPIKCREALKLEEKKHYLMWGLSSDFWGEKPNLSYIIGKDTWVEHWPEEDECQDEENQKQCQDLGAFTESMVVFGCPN

Row | Molecule | cleavage of the C3 alpha chain to the a' chain (Western blot) [1] | cleavage of the C3 alpha chain to the a' chain (Western blot) [2]
1 | human FCXIa (activated form of human clotting factor XI) | can cleave C3 in vitro in the absence of any complement proteases | 
2 | human FXa (activated form of human clotting factor X) | can cleave C3 in vitro in the absence of any complement proteases | 
3 | B1 |  | can cleave C3 in vitro in the absence of any complement proteases
